Measurements taken from patent US20260227416A1 (published 2026).

Target: T1, CD20 on SU-DHL4 cells (UniProt P11836 1-297, limits assumed)
T1 sequence (looked up): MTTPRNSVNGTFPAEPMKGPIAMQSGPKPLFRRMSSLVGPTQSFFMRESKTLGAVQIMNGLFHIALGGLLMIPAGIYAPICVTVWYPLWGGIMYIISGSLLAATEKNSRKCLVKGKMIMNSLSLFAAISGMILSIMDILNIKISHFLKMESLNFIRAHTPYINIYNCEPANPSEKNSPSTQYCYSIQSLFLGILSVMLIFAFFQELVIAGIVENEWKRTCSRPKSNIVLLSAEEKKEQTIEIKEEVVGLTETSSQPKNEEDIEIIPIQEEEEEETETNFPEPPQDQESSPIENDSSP
Experiment: cell-based or functional assay

B1: Rituximab chimeric antibody (antibody, human IgG1, kappa, V domains shown)
VH: VQLQQPGAELVKPGASVKMSCKASGYTFTSYNMHWVKQTPGRGLEWIGAIYPGNGDTSYNQKFKGKATLTADKSSSTAYMQLSSLTSEDSAVYYCARSTYYGGDWYFNVWGAGTTVTVSA
VL: QIVLSQSPAILSASPGEKVTMTCRASSSVSYIHWFQQKPGSSPKPWIYATSNLASGVPVRFSGSGSGTSYSLTISRVEAEDAATYYCQQWTSNPPTFGGGTKLEIKR
B1 was tested, and the “EC50 values of target cell killing (ADCC, SU-DHL4 target cells)” value was ~10 ng/mL.
